The supplement of paper PMC10567573

B1: PRIM1 (parent)
chain: CCSSADICPKCWTLMTMAIRIIDR

Variants of: B1
Assay: protein stability index of a GFP-peptide fusion (GPS, HEK-293T) (PSI 1-6); higher = more stable
Conditions: c terminus: a fixed tail appended
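Also: lentivirally expressed fusions sorted by FACS into six bins by GFP to DsRed ratio, PSI derived from sequencing read proportions per bin multiplied by bin number.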

Variant | protein stability index
CCSSADIVPKCWTLMTMAIRIIDR [C8V] | 2.88
CCSSADIRPKCWTLMTMAIRIIDR [C8R] | 3.94
CCSSADIQPKCWTLMTMAIRIIDR [C8Q] | 1.8
CCSSADISPKCWTLMTMAIRIIDR [C8S] | 1.54
CCSSADICPKCWGLMTMAIRIIDR [T13G] | 1.91
CCSSADICPKCWMLMTMAIRIIDR [T13M] | 1.59
CCSSADICPKCWLLMTMAIRIIDR [T13L] | 1.49
CCSSADICPKCWILMTMAIRIIDR [T13I] | 2.13
CCSSADICPKCWQLMTMAIRIIDR [T13Q] | 2.18
CCSSADICPKCWKLMTMAIRIIDR [T13K] | 2.46
CCSSADICPKCWALMTMAIRIIDR [T13A] | 2.63
CCSSADICPKCWFLMTMAIRIIDR [T13F] | 1.53
CCSSADICPKCWYLMTMAIRIIDR [T13Y] | 2.19
CCSSADICPKCWSLMTMAIRIIDR [T13S] | 1.96
CCSSADICPKCWELMTMAIRIIDR [T13E] | 1.88
CCSSADICPKCWPLMTMAIRIIDR [T13P] | 1.3
CCSSADICPKCWWLMTMAIRIIDR [T13W] | 2.31
CCSSADICPKCWNLMTMAIRIIDR [T13N] | 1.38
CCSSADICPKCWDLMTMAIRIIDR [T13D] | 1.61
CCSSADICPKCWCLMTMAIRIIDR [T13C] | 2.04
CCSSADICPKCWTHMTMAIRIIDR [L14H] | 1.6
CCSSADICPKCWTSMTMAIRIIDR [L14S] | 2.39
CCSSADICPKCWTAMTMAIRIIDR [L14A] | 2.21
CCSSADICPKCWTIMTMAIRIIDR [L14I] | 1.75

Variant | protein stability index
CCSSADICPKCWTNMTMAIRIIDR [L14N] | 1.82
CCSSADICPKCWTGMTMAIRIIDR [L14G] | 1.27
CCSSADICPKCWTFMTMAIRIIDR [L14F] | 2.06
CCSSADICPKCWTCMTMAIRIIDR [L14C] | 1.8
CCSSADICPKCWTKMTMAIRIIDR [L14K] | 2
CCSSADICPKCWTMMTMAIRIIDR [L14M] | 1.55
CCSSADICPKCWTPMTMAIRIIDR [L14P] | 2.27
CCSSADICPKCWTEMTMAIRIIDR [L14E] | 2.06
CCSSADICPKCWTRMTMAIRIIDR [L14R] | 2.18
CCSSADICPKCWTQMTMAIRIIDR [L14Q] | 1.9
CCSSADICPKCWTDMTMAIRIIDR [L14D] | 1.95
CCSSADICPKWWTLMTMAIRIIDR [C11W] | 2.84
CCSSADICPKEWTLMTMAIRIIDR [C11E] | 3.11
CCSSADICPKIWTLMTMAIRIIDR [C11I] | 2.4
CCSSADICPKKWTLMTMAIRIIDR [C11K] | 1.82
CCSSADICPKFWTLMTMAIRIIDR [C11F] | 2.58
CCSSADICPKTWTLMTMAIRIIDR [C11T] | 1.76
CCSSADICPKAWTLMTMAIRIIDR [C11A] | 4.39
CCSSADICPKHWTLMTMAIRIIDR [C11H] | 2.43
CCSSADICPKDWTLMTMAIRIIDR [C11D] | 3.13
CCSSADICPKCRTLMTMAIRIIDR [W12R] | 2.56
CCSSADICPKCVTLMTMAIRIIDR [W12V] | 1.23
CCSSADICPKCFTLMTMAIRIIDR [W12F] | 1.69
CCSSADICPKCATLMTMAIRIIDR [W12A] | 2.29

Variant | protein stability index
CCSSADICPKCITLMTMAIRIIDR [W12I] | 1.83
CCSSADICPKCLTLMTMAIRIIDR [W12L] | 1.56
CCSSADICPKCNTLMTMAIRIIDR [W12N] | 1.83
CCSSADICPKCSTLMTMAIRIIDR [W12S] | 2.23
CCSSADICPKCTTLMTMAIRIIDR [W12T] | 1.88
CCSSADICPKCDTLMTMAIRIIDR [W12D] | 1.71
CCSSADICPKCPTLMTMAIRIIDR [W12P] | 1.48
CCSSADICPKCMTLMTMAIRIIDR [W12M] | 2.02
CCSSADICPKCHTLMTMAIRIIDR [W12H] | 2.19
CCSSADICPKCQTLMTMAIRIIDR [W12Q] | 2.75
CCSSADICPKCETLMTMAIRIIDR [W12E] | 2.05
CCSSADICPKCKTLMTMAIRIIDR [W12K] | 2.64
CCSSADICPKCCTLMTMAIRIIDR [W12C] | 1.83
CCSSADICPKCGTLMTMAIRIIDR [W12G] | 2.2
CCSSADICPKCYTLMTMAIRIIDR [W12Y] | 2.48
CCSSADICRKCWTLMTMAIRIIDR [P9R] | 1.73
CCSSADICEKCWTLMTMAIRIIDR [P9E] | 1.33
CCSSADICYKCWTLMTMAIRIIDR [P9Y] | 1.55
CCSSADICMKCWTLMTMAIRIIDR [P9M] | 1.86
CCSSADICTKCWTLMTMAIRIIDR [P9T] | 1.47
CCSSADICLKCWTLMTMAIRIIDR [P9L] | 1.77
CCSSADICSKCWTLMTMAIRIIDR [P9S] | 1.96
CCSSADICCKCWTLMTMAIRIIDR [P9C] | 2.43
CCSSADICIKCWTLMTMAIRIIDR [P9I] | 1.78

Variant | protein stability index
CCSSADICHKCWTLMTMAIRIIDR [P9H] | 2.29
CCSSADICVKCWTLMTMAIRIIDR [P9V] | 2.27
CCSSADICAKCWTLMTMAIRIIDR [P9A] | 1.53
CCSSADICNKCWTLMTMAIRIIDR [P9N] | 1.29
CCSSADICGKCWTLMTMAIRIIDR [P9G] | 1.9
CCSSADICFKCWTLMTMAIRIIDR [P9F] | 1.59
CCSSADICKKCWTLMTMAIRIIDR [P9K] | 2.69
CCSSADICDKCWTLMTMAIRIIDR [P9D] | 1.64
CCSSADICWKCWTLMTMAIRIIDR [P9W] | 1.35
CCSSADICQKCWTLMTMAIRIIDR [P9Q] | 1.67
CCSSADICPYCWTLMTMAIRIIDR [K10Y] | 1.85
CCSSADICPRCWTLMTMAIRIIDR [K10R] | 2.3
CCSSADICPTCWTLMTMAIRIIDR [K10T] | 2.71
CCSSADICPLCWTLMTMAIRIIDR [K10L] | 2.14
CCSSADICPFCWTLMTMAIRIIDR [K10F] | 1.95
CCSSADICPECWTLMTMAIRIIDR [K10E] | 1.56
CCSSADICPCCWTLMTMAIRIIDR [K10C] | 2.62
CCSSADICPDCWTLMTMAIRIIDR [K10D] | 3.36
CCSSADICPHCWTLMTMAIRIIDR [K10H] | 2
CCSSADICPQCWTLMTMAIRIIDR [K10Q] | 1.98
CCSSADICPNCWTLMTMAIRIIDR [K10N] | 1.81
CCSSADICPMCWTLMTMAIRIIDR [K10M] | 1.92
